assay: label from the status in PepcDB records

Sequence | protein production
MDQKSTTCLEALAKLSQQREHQTTPATLCSSEHFFANETIYSDATFLSTTEEAFISSPSSSTQGPKPGLKRVSTGPMTRILEGCQNDKPNSPELERVEEAEDNYSGTSSEEAFSQGIPYPHQVGGHGALSSFERGRVLKPAAKKEIDFYNFIYSDNLPSELEWLRTVTPKYFGQRKTQAKAKRILENQVTPFSQTSSVPVNTVLHIDRKDSERNIWKDQVGELVMDTNPWARACLLKELQKEDEVKSFIILEDLTCHLKKPCVLDCKMGTRHYDDDATEEKKKAHIEKATKTTSSSTGIRFTGMQVYKLPSHTFLFHDKYYGRQLKSHELKNELFEFFHNGVLLRVDIIEQFLSKLQWLYQHLENQHYFNFYSSSLLFVYEGDEMATCPISDVRMIDFAHTQRCVEEQQNDGYLFGLSNLIHLMKSLLEDERNEMR | failed
MDQLWANRAASAEAAITERHLKKLWGLPGTQLGVVAWPPARKYTLFGTWHYWWQAHLLDCLVDAQVRDPQPERTTRIERQLRAHRLRNNLSWVNDYYDDMAWLALAIERAGRLAGVEKPTALRKLCDQFVTAWVPEDGGGIPWRKQDQFFNAPANGPAGIFLARYDDRLRRAQQMADWIDETLIDPDTHLVFDGIKAGSLVRAQYTYCQGVVLGLEVELAVRTQDPRHAPRVRRLVAAVDKEMTTDGVIKGAGGGDGGLFNGILARYLALVATTLPGETPEDIAARDTARTIVLKSARSAWDHRQTVDGLPLFSAFWDRNAEIPTAGGKEAEFVEGAVNASSVPERDLSVQLAGWMLMEAAHSVDSVDAEDAAGDQNGAGDGEVGHDENEDEELEHHHHHH | not failed
MDQQYDFGRPMGHERRSKEHDVTMRNRKTLDITGVKQVESFDNEEFLLETEMGFLSIRGRNLHMKNLNVEEGLVSIEGKIFDMVYLEQGQGEKSKGFFGKLFKLEHHHHHH | failed
MDRFLVKGAQGGLLRKQEEQEPTGEEPAVLGGDKESTRKRPRGEAPGNGGHSAGPSWRHIRAEGLDCSYTVLFGKAEADEIFQELEKEVEYFTGALARVQVFGKWHSVPRKQATYGDAGLTYTFSGLTLSPKPWIPVLERIRDHVSGVTGQTFNFVLINRYKDGCDHIGEHRDDERELAPGSPIASVSFGACRDFVFRHKDSRGKSPSRRVAVVRLPLAHGSLLMMNHPTNTHWYHSLPVRKKVLAPRVNLTFRKILLTKK | failed
MDRKKVMVRHSIASLVALGIFGGSRFLYNVIIGRKYGVETLGYTNSIISQAFFVAGFLAFFSVGLGKFTSEFLGKGEYNRIKKLTGISFTFPFLGLILIPLNFHVALLSVLRAIQLTFRSFIYGLHKGELYAYSVILAFPFFLLGFLDGPLLPYYLLLGTIGIFSLSYLVSRSLIGLPGREDTKALIGFSTWAFLGTIAGIFLLQAPYFLTEKLAGNIEAGIVSVALSTAFLLSYLPQILQSAIVPLYAYDYAKGDDKAIKELAENSTLLLSLFSSLLVFGLIFAKSFVEVLFNIKMGAELLLALIGVELYIAYNPLINLLTATKFVKKSAIFSLIGAMVSGIFWILLIPRLGAIGTLLGLTLGYAIIFALVLWESKRKFNINAKILKPTLLAIPLQLLSLKFPYTILIYLITEIKDIEKVMAFLRDIRS | failed
MDRLNQIQIILVETSLSANIGSAARAMKTMGLSNLRLVRPKNPLDEQATALAAGAKNILDNAQIFNTFDAAIADCQLIIGTSARLRHLQSTLVEPRECGKLIINNTNQHKIALIFGRERIGLTNEELLKCHYHLNVPTNPEYESLNLAMAVQLACYEIRMAWLELQKKPIIQPLTEEKNYPTAAAMAHFFDHTERLYKELGFIRNDAVMLKLRRLYQRAKLEENELNLLRGMLTAVEKHRIS | failed
MDRMDKAAKINIINANVRNAQTGDYYYNPYKIVNKTFTDTDGKQVTLKIGITGVLPTQILVWDKANLEGKVTVDDPMEAVKTIVPQMKAAGADFILVAAHSGIGDNEYTKNEENEGYQIAGIEGVDAVATGHSHADFPNGDGTSFYAKYPGVDDVNGLINGKPVVMAGKFGDHLGIMDVKLTYTDGKWKVVNSKAKLEKIDTKSDIADKALIDMAAHDHDGTILTMFVRKLVRPLPQSLAILLKFRTIHLFKS | failed
MDRNIDQELVSIIIPTHNRYESLIRAVKSCLHQSYKNIEVIIIDDNYSNVNLRNKIIHQFGYTNHRIKLILSNEDLGATNARNIGIKNSRGKYISFLDDDDEYMPDRILKLMACFKKSRMKNLALVCSYGIIIYPNGTREEEKTDFVGNPLFVQMVHNIAGTSFWLCKKEVLELINGFEKIDSHQDGVVLLKLLVQGYQIDIVREFLVNYYAHSKENGITGVTQKTINADEEYYNYCRKYFNLLSFNERILVTKKYYSLNIKRLLLIGDKCKALKVIKKAREEKIFNEFLF | failed
MDRNYSNWQSLTSLALFLLPFLFIGWLFDLFWPVTALALLGLVCWHYYYQQKLIKWLWQSRTLMPPSAPGSWSYIYDGIYRSQRRSQKRRKALARLLRRFREAAEALPDAAIVFRADGALLWSNKLAQFYFGLRWPDDAGQRLSNLIRHPEFYAYLNAGNFDEELTIPSPIRESLDIEIRIMPYSEDQFLLVARDVTQVKRLENLRREFVANVSHELKTPLTVLQGYLEMMDEPQQTPPAMLKKAVENMNAQSTRMANLVDQLLTLSRMETPSNDVFDHEVDMPALLEQLESEAKRLNEVKQHKIEFDVAPVRIYGKENLLRSAMQNLITNAINYTPDGGEIKVTWKTVAGGVEFSVKDNGKGIAAEHLPRLTERFYRVEDDRNSASGGTGLGLSIVKHAIEHHNSQLDINSSLEKGSRFSFRIPSGLLVS | failed
MDSDADGGETVSNFSENSTDFEETEEYIVERILDRRHYMGQLQYLVKWLDYSDEDNTWESAADLDCHSLIDSIESQKSLKRGQELNNQYETKAKRLKIDP | failed
MDSQSENGSGAGNRTSIERRGDRELVVTRTFDAPRAMVYRAWSEPELFRRWWMPKSATGVTLVSCDMDVRTGGKYRLEFSTGGPQTMAFYGKYLDVVPNERIVWTNDEGEADAGEKGAITTVTFEDHGSQTLLRFHEVYPTAEALEEALQGSAAALPEQFDQLGEVLSGSGGKQ | failed
MDTAASPLTYRDATDADVDALVALIESAYRGDASRAGWTTEADILQGQRTDPQGVLEVVKAPDSRLLTVERDGRIVACCQLEHRGAHAYFGMFAVSPALQGAGLGKAIIAEAERQARTTWGVTEMHMTVISVRDDLIAWYERRGYRRTGETTPFPYGDERFGIPQRADLRFELLVKPLV | failed
MDTAVVYYVLATALVLIGLAGVILPALPGLPLVFAGLLVAAWADNFTHIGWVTLVVLGLITALSYLVDFLATLYGAQRVGASKMALWGSVIGGIAGIFFMPIGLFIGPFAGAWLGEYYQTRKSGQATKVGIGTWVGIMLGTATKLALGLCMLGAFAIGWFF | failed
MDTMSQILKLLEKTDSIEINEFRMDVDELELTIMPTLQNVVQKVVEKQIEAKKEFESQIEFKYPVKDYAGKVNEVKLGGKNRKTVKLGGQTSLYRFEEPQPNAPTVTFDVFDIPMNGLPRPIKENFEDVMHSPGEWAQKAVKEFGADMITLHLIGTDPKVKDKSLKDAAKDLEEVLQAVKVPLVIGGSGNPKKDPLVLEMAAEVADGERCLLASANLDLDYQKIAQAAVKHDHAVLSWAISDINMQKVLNKALMKEGLTANDIVMDPTTCALGYGIEFSIDVMTRTRLSALKGDEILQMPMSSGTTNAWGSREAWMKKDEWGPTKYRGPIWEVVTGLTMMLCGVDIFMMLHPLSVKTLKEIGTTLTYEYKSKESQDISDWINKF | not failed
MDTPSRRSFLLAGGSFAIGVGAGLGIAHRDDVLPSRVVWAFETTGRIVSSPTVGDGTVYVGSDDSTVHSVSTSDGTRRTTARLHTKAGVFSSPALGADGGLYVGSTDTAIYGLFSSPGARDEWRFETTDWVTASPAVADGTVYVGSTDGTMYALNAETGAEQWRFETGDGIVSSPAVVDGTVYVGSTDGTVYALDADSGTDRWQFDTEGRVYSSPTVADGTVYVGSYDANIYAIDTTDGVEQWQFETGDSIWSSPTVLEETLWIGSKDAALYAVATEDGSEQWRFPTGGEVNSSPTVAGETVYVGSDDANLYAVAASDGSERWTFETGGAVQSSPTVADGTVYVGSGDSTLYALDADETGSSEGSRAELRTLGYFAE | failed
MDTRKNVSGAERKIWSLIRDCSGKLEGVTETSVLEVLLIVSRVLGIRKEDLFLKDLGVSPTEEKRILELVEKRASGYPLHYILGEKEFMGLSFLVEEGVFVPRPETEELVELALELIRKYGIKTVADIGTGSGAIGVSVAKFSDAIVFATDVSSKAVEIARKNAERHGVSDRFFVRKGEFLEPFKEKFASIEMILSNPPYVKSSAHLPKDVLFEPPEALFGGEDGLDFYREFFGRYDTSGKIVLMEIGEDQVEELKKIVSDTVFLKDSAGKYRFLLLNRRSS | not failed
